Reference: patent US11168306 (University of California, dated 2021)
Read-outs that look alike come from different tables or passages of the source. Ends that are not written are not given here. * marks the point of attachment. Butanoyl(4-N3) = [N-]=[N+]=NCCCC(=O)*; Pent4ynoyl = C#CCCC(=O)*

Tests used:
[1] = target: T1, bovine serum albumin (bovine, UniProt P02769 25-607); assay: phage-wrapping ELISA on BSA, anti-M13-HRP detection
T1 construct: also called BSA

[2] = target: T2, prostate-specific membrane antigen (PSMA), dimeric form (UniProt Q04609 44-750, limits assumed); assay: phage-based wrapping ELISA, PSMA dimer coated (FIG. 3A)
T2 construct: Purified protein, construct not described; also called dimeric PSMA
Experimental: (§1) In a phage-based ELISA, specific wells of a 96-well microtiter plate (Nunc Maxisorp) were coated with 100 µL/well of a solution of PSMA (5.56 or 11.1 nM) monomer or dimer protein diluted in PBS. The plate was incubated for 1 h on a shaker at room temperature. The coating solution was removed, and the wells were blocked with 320 µL/well of 0.2% w/v solution of BSA in PBS for 30 min, and washed three times with 300 µL/well of wash buffer PT (0.05% TWEEN-20 in PBS). […] The wells on the ELISA plate were then incubated with the phage samples (100 µL/well) for 1 h. The wells were washed five times with PT and then incubated with horseradish-peroxidase-conjugated anti-M13 antibody (100 µL/well, 1:5000 dilution in PBT) for 30 min. The wells were washed three times with PT, and two times with PBS. […] Following an appropriate incubation time, HRP activity was measured spectrophotometrically at 450 nm using a microtiter plate reader (Bio-Tek).
(§2) Phage-based wrapping ELISA: Phage (5 nM in 225 µL) and 2 µL of the purified cycloaddition reaction product, $KCS$-1/2 (308.7 µM) in water: acetonitrile (60:40), were mixed and serially diluted in PBT. […] Levels of phage binding were quantified as described above.

[3] = target: T1, bovine serum albumin; assay: phage-wrapping ELISA on BSA, anti-M13-HRP detection; remark: listed apart in the source
[4] = target: T1, bovine serum albumin; assay: phage ELISA on BSA, anti-M13-HRP detection
[5] = target: T2, prostate-specific membrane antigen …; assay: phage ELISA, PSMA dimer coated on the plate, [PSMA] = 11.1 nM, phage titrated, anti-M13-HRP detection
Experimental: (§3) In a phage-based ELISA, specific wells of a 96-well microtiter plate (Nunc Maxisorp) were coated with 100 µL/well of a solution of PSMA (5.56 or 11.1 nM) monomer or dimer protein diluted in PBS. The plate was incubated for 1 h on a shaker at room temperature. The coating solution was removed, and the wells were blocked with 320 µL/well of 0.2% w/v solution of BSA in PBS for 30 min, and washed three times with 300 µL/well of wash buffer PT (0.05% TWEEN-20 in PBS). […] The wells on the ELISA plate were then incubated with the phage samples (100 µL/well) for 1 h. The wells were washed five times with PT and then incubated with horseradish-peroxidase-conjugated anti-M13 antibody (100 µL/well, 1:5000 dilution in PBT) for 30 min. The wells were washed three times with PT, and two times with PBS. The plate was then developed by incubating with HRP substrate solution (100 µL/well; 1 mg/mL o-phenylenediamine dihydrochloride and 0.02% w/v H_2O_2) in citric acid buffer (50 mM citric acid, 50 mM Na_2HPO_4, pH 5.0). Following an appropriate incubation time, HRP activity was measured spectrophotometrically at 450 nm using a microtiter plate reader (Bio-Tek).

[6] = target: T2, prostate-specific membrane antigen …; assay: electrochemical impedance spectroscopy, virus-PEDOT film, Hill fit of ΔR/Ro against PSMA concentration; phage-2 alone, not wrapped with KCS-1
Experimental: (§4) Biosensing with Virus-PEDOT Films. To explore whether these wrapped virus particles could be exploited to create virus-electrode biosensors with a higher sensitivity for PSMA, films of PEDOT were prepared on gold electrodes by electropolymerization in the presence of phage-2 (FIG. 2B). The PEDOT films formed in solution during electropolymerization associate with the negatively charged perchlorate ions from the electrolyte solution as it is deposited onto the gold electrode.[30] Polymerization of EDOT in the presence of negatively charged phage particles leads to incorporation of virus particles into the polymeric film as counterion dopants due to electrostatic interactions.[21] […] SEM imaging confirms incorporation of phage into the bioaffinity matrix; both filament-like and less extended features having dimensions consistent with phage integrated as rope-like bundles into the polymer at various angles to the film (FIGS. 4B-4C) were observed. The $KCS$-1 wrapper was then applied in vitro simply by exposing the resultant phage-2 film for a short time to an aqueous solution of the wrapper. For the biosensing measurements, only the highest affinity ligand combination of phage-2 wrapped with $KCS$-1 was used, and it was studied in comparison to phage-2 films.
(§5) where $Y=\Delta R/R_o$, [L] is the ligand concentration, and n is the Hill coefficient.[31] […]

[7] = target: T2, prostate-specific membrane antigen …; assay: phage-based wrapping ELISA, PSMA dimer coated (FIG. 3C)
Experimental: as §1, §2

[8] = target: T3, transferrin receptor (UniProt P02786 89-760, limits assumed); assay: electrochemical impedance of a virus-PEDOT film in PBF-Tween after exposure to TfR, ΔR/Ro against frequency; concentration not given
T3 construct: Alternative target used as specificity control in impedance sensing; also called TfR

[9] = target: T2, prostate-specific membrane antigen …; assay: electrochemical impedance spectroscopy, virus-PEDOT film, Hill fit of ΔR/Ro against PSMA concentration; phage-2 wrapped with KCS-1
Experimental: as §4, §5

[10] = target: T2, prostate-specific membrane antigen …; assay: electrochemical impedance spectroscopy, virus-PEDOT film, PBF-TWEEN buffer (FIG. 4F)
[11] = target: T4, PSMA on the surface of LNCaP cells (human, UniProt Q04609 1-750); assay: cell-based phage ELISA on fixed LNCaP cells, anti-M13-HRP detection, HRP activity as fold change
T4 construct: whole, on cells; Cells were glutaraldehyde-fixed on the plate in the cell-based ELISA and in suspension in the sandwich ELISA; also called cell surface PSMA; PSMA on LNCaP cells

[12] = target: T5, prostate-specific membrane antigen (PSMA), monomeric form (UniProt Q04609 44-750, limits assumed); assay: phage ELISA, PSMA monomer coated on the plate, [PSMA] = 11.1 nM, anti-M13-HRP detection
T5 construct: Purified protein coated on the ELISA plate; construct not described
Experimental: as §3

[13] = target: T2, prostate-specific membrane antigen …; assay: electrochemical impedance of a virus-PEDOT film in PBF-Tween after exposure to PSMA, ΔR/Ro against frequency; concentration not given
[14] = target: T4, PSMA on the surface of LNCaP cells; assay: cell-based phage ELISA on fixed LNCaP cells, anti-M13-HRP detection, HRP activity as fold change; remark: listed apart in the source
[15] = target: T2, prostate-specific membrane antigen …; assay: phage ELISA, PSMA coated on the plate, [PSMA] = 13 nM, anti-M13-HRP detection

T1 sequence (P02769 25-607 limits assumed): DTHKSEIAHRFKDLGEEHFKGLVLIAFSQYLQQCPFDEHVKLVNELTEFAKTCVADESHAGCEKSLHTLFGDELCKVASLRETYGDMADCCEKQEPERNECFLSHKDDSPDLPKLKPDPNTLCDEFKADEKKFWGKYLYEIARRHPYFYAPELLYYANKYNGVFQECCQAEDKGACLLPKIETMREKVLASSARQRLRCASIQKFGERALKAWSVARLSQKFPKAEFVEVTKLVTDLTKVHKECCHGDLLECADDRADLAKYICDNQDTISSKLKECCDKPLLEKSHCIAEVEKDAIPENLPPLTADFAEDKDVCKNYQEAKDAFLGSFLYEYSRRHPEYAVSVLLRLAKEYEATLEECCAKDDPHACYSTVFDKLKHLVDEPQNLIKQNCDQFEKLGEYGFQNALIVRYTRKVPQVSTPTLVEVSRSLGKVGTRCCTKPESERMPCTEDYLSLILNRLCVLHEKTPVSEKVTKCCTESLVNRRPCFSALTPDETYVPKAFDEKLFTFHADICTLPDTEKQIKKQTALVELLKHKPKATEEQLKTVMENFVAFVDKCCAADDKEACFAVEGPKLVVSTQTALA
T2 sequence (Q04609 44-750 limits assumed): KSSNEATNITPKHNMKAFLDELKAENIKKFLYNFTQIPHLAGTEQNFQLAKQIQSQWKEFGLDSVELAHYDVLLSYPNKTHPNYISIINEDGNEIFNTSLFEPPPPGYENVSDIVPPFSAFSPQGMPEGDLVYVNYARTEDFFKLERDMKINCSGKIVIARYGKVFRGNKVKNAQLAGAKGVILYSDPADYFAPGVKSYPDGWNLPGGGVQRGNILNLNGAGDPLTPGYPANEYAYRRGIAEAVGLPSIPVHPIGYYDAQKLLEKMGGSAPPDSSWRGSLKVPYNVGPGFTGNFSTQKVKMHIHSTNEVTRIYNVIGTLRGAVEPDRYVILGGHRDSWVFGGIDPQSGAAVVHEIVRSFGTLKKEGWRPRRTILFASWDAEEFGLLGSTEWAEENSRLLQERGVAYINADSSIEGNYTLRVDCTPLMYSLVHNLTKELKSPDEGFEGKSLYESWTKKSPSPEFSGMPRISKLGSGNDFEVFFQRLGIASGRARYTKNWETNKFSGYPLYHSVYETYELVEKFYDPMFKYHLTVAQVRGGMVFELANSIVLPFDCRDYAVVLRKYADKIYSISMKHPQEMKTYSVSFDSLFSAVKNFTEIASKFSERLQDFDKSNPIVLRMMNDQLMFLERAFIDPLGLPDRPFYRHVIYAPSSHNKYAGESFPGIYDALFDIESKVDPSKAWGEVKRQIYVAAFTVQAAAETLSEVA
T4 sequence (Q04609 whole entry): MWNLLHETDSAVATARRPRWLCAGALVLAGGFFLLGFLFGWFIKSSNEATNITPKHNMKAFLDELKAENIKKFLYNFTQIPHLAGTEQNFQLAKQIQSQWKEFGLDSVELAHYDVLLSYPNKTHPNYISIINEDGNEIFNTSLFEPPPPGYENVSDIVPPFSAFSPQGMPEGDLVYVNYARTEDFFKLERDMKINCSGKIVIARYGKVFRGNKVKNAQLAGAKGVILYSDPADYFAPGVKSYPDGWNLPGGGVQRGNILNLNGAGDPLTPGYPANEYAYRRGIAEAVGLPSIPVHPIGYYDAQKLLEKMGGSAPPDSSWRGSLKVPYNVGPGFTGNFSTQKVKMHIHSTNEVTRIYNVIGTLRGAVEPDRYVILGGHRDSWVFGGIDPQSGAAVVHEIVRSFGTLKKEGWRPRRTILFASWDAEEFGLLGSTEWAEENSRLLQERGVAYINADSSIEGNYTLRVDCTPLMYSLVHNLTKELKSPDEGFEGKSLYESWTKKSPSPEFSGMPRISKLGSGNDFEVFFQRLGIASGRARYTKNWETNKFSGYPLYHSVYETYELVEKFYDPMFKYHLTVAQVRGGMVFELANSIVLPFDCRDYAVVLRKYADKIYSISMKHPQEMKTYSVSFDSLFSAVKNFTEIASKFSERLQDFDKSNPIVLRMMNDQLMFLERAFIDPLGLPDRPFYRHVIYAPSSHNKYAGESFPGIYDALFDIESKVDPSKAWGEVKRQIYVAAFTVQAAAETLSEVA
T3 sequence (P02786 89-760 limits assumed): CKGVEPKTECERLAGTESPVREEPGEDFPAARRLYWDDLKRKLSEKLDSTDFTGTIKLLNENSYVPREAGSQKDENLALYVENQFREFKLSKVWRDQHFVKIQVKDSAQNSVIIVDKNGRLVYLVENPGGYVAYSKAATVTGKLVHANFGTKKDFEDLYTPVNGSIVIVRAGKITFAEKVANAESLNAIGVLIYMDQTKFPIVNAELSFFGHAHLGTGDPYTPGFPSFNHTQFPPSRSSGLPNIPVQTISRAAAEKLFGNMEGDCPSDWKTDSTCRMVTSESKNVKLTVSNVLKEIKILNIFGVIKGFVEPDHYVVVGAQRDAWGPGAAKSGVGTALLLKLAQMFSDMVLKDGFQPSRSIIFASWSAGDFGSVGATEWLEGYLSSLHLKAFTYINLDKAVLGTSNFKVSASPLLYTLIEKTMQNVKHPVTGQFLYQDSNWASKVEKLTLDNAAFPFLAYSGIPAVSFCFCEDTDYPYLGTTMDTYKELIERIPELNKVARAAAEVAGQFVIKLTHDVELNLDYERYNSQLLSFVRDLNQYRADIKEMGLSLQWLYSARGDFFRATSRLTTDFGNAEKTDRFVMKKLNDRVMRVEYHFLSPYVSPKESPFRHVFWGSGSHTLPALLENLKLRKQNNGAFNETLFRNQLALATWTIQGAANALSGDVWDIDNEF
T5 sequence (Q04609 44-750 limits assumed): as the sequence (Q04609 44-750 limits assumed) above

B1: phage-2 wrapped with KCS-2 (peptide)
chain: SECVEVFQNSCDW
peptide 1: Pent4ynoyl-KKKKKKKKKKKKKK-NH2
peptide 2: {Butanoyl(4-N3)}-KKKSECVEVFQNSCDW-NH2
modifications: not fully specified; cysteine pairing not given here; also: KCS-2 wrapper held on P8 coat electrostatically, triazole to a chain's N-terminus
notes: Whole M13 virion; the KCS-2 wrapper (K14 clicked to K3-ligand 2) is held on the P8 coat electrostatically, not covalently; also called Phage with chemically and genetically encoded ligands; not shown: M13 major coat protein P8, 50 amino acid residues; NCBI GI:402239556 named in an embodiment
binding result [1]: no binding (tested: 5 nM) | fold higher affinity than phage-2 without the ligand wrapper [2]: ~50 fold

B2: phage-2 wrapped with a 1:1 (w/w) mixture of KCS-2 and KCS-1 (peptide)
chain: SECVEVFQNSCDW
peptide 1: Pent4ynoyl-KKKKKKKKKKKKKK-NH2
peptide 2: {Butanoyl(4-N3)}-KKKCALCEFLG-NH2
peptide 3: {Butanoyl(4-N3)}-KKKSECVEVFQNSCDW-NH2
modifications: cysteine pairing not given here; also: K14 chains clicked to ligand chains, triazole to a chain's N-terminus
notes: Whole M13 virion with both wrappers held electrostatically on the coat; also called 1:1 mixture of KCS-1 and KCS-2 wrapped on the surface of phage-2; not shown: M13 major coat protein P8, 50 amino acid residues; NCBI GI:402239556 named in an embodiment
binding result [3]: no binding (tested: 5 nM)

B3: phage-2 (M13 phage displaying PSMA ligand 2 as a fusion to P8) (peptide)
chain: SECVEVFQNSCDW
modifications: not fully specified; cysteine pairing not given here; also: displayed on M13 phage as fusion to P8 coat protein
notes: Whole M13 virion in the assay (free in ELISA, embedded in a PEDOT film for impedance sensing); also called peptide 2; peptide-2; not shown: M13 major coat protein P8, 50 amino acid residues; NCBI GI:402239556 named in an embodiment
binding result [4]: no binding (tested: 5 nM) | EC50 (read off the curve) [5]: ~0.008 nM | Kd [6]: 54 nM

B4: phage-2 wrapped with KCS-1 (peptide)
chain: SECVEVFQNSCDW
peptide 1: Pent4ynoyl-KKKKKKKKKKKKKK-NH2
peptide 2: {Butanoyl(4-N3)}-KKKCALCEFLG-NH2
modifications: not fully specified; cysteine pairing not given here; also: KCS-1 wrapper held on P8 coat electrostatically, triazole to a chain's N-terminus
notes: Whole M13 virion (free in ELISA, embedded in a PEDOT film for impedance sensing); the KCS-1 wrapper is held on the P8 coat electrostatically; also called Phage-2 film wrapped with KCS-1; not shown: M13 major coat protein P8, 50 amino acid residues; NCBI GI:402239556 named in an embodiment
fold higher apparent affinity than phage-2 wrapped with KCS-2 [7]: 4 fold | binding result [3]: no binding (tested: 5 nM) | binding result [8]: no binding | Kd [9]: 33 nM | fold ΔR/Ro relative to films with unwrapped phage-2 [10]: 3 fold

B5: phage wrapped with P100NSP-2 (peptide)
peptide 1: SECVEVFQNSCDW
peptide 2: KKKKKKKKKKKKKKC
chain: AEGDDPAKAAFNSLQASATEYIGYAWAMVVVIVGATIGIKLFKKFTSKAS
modifications: Cys thiol joined to the maleimide of the PEG100 ligand; C-terminal carboxamide; N-terminal azide clicked to pentynoic acid, then HBTU-coupled non-specifically (carboxylates incl. side chains, Asp12 may be partly modified) to Mal-PEG100-NH2; C-terminal carboxamide
notes: mature; Whole M13 virion; K14-Cys held electrostatically on P8
binding result [11]: binds

AEGDDPAKAAFNSLQASATEYIGYAWAMVVVIVGATIGIKLFKKFTSKAS (other, M13 bacteriophage, UniProt P69541 24-73, looked up, not fully specified, mature; also called control phage) [Stop-4 phage (phagemid packaged by helper phage, no ligand displayed)]
binding result [12]: no binding (tested: last point just right of the 10 nM tick) | binding result [13]: no binding

B6: phage wrapped with P100NSP-P4-2 (peptide)
peptide 1: SECVEVFQNSCDW
peptide 2: KKKKKKKKKKKKKKC
chain: AEGDDPAKAAFNSLQASATEYIGYAWAMVVVIVGATIGIKLFKKFTSKAS
modifications: Cys thiol joined to the maleimide of the PEG100 ligand; C-terminal carboxamide; N-terminal azido-PEG4-carboxylic acid, clicked to pentynoic acid, then HBTU-coupled non-specifically to Mal-PEG100-NH2; C-terminal carboxamide
notes: as for B5
binding result [14]: binds

B7: KO7 helper phage (other, M13 bacteriophage, UniProt P69541 24-73, looked up)
chain: AEGDDPAKAAFNSLQASATEYIGYAWAMVVVIVGATIGIKLFKKFTSKAS
notes: mature; Helper phage lacking a genetically encoded PSMA ligand; bought from GE Healthcare
binding result [15]: no binding (tested: about 5 nM)

B8: phage wrapped with P100SP-P4-2 (peptide)
peptide 1: SECVEVFQNSCDW
peptide 2: KKKKKKKKKKKKKKC
chain: AEGDDPAKAAFNSLQASATEYIGYAWAMVVVIVGATIGIKLFKKFTSKAS
modifications: Cys thiol joined to the maleimide of the PEG100 ligand; C-terminal carboxamide; N-terminal azido-PEG4-carboxylic acid, clicked to Mal-PEG100-alkyne (specific attachment); C-terminal carboxamide
notes: as for B5
binding result [14]: binds

B9: phage wrapped with P100SP-2 (peptide)
peptide 1: SECVEVFQNSCDW
peptide 2: KKKKKKKKKKKKKKC
chain: AEGDDPAKAAFNSLQASATEYIGYAWAMVVVIVGATIGIKLFKKFTSKAS
modifications: Cys thiol joined to the maleimide of the PEG100 ligand; C-terminal carboxamide; N-terminal azide clicked to Mal-PEG100-alkyne (specific attachment); C-terminal carboxamide
notes: as for B5
binding result [14]: binds
